Common to all, as to details: protein: recombinant; single strand
Data set [1] deals with T1, BsCspB (cold shock protein B) (UniProt P32081 1-67). The data set can be described thus: intrinsic Trp fluorescence quenching; dilute; 20 mM disodium phosphate pH 7.0, no added salt stated; fluorescence titration 298 K (0.5, 2.8 or 4 uM protein; table marks a/b not explained in the material); stopped-flow 288 K (60 or 300 nM protein); NMR 298 or 294.4 K with 5% D2O.
Data set [2] addresses T1, BsCspB (cold shock protein B). The data set can be described thus: intrinsic Trp fluorescence quenching; 200 g/L PEG1; 20 mM disodium phosphate pH 7.0, no added salt stated; fluorescence titration 298 K (0.5, 2.8 or 4 uM protein; table marks a/b not explained in the material); stopped-flow 288 K (60 or 300 nM protein); NMR 298 or 294.4 K with 5% D2O.
For data set [3] the target is unchanged. The data set can be described thus: intrinsic Trp fluorescence quenching; 100 g/L PEG8; 20 mM disodium phosphate pH 7.0, no added salt stated; fluorescence titration 298 K (0.5, 2.8 or 4 uM protein; table marks a/b not explained in the material); stopped-flow 288 K (60 or 300 nM protein); NMR 298 or 294.4 K with 5% D2O.
The target is the same in data set [4]. The data set can be described thus: intrinsic Trp fluorescence quenching; 300 g/L Dex20 (series b); 20 mM disodium phosphate pH 7.0, no added salt stated; fluorescence titration 298 K (0.5, 2.8 or 4 uM protein; table marks a/b not explained in the material); stopped-flow 288 K (60 or 300 nM protein); NMR 298 or 294.4 K with 5% D2O.
The target is the same in data set [5]. Kind of data set: intrinsic Trp fluorescence quenching; 300 g/L Dex20 (series a); 20 mM disodium phosphate pH 7.0, no added salt stated; fluorescence titration 298 K (0.5, 2.8 or 4 uM protein; table marks a/b not explained in the material); stopped-flow 288 K (60 or 300 nM protein); NMR 298 or 294.4 K with 5% D2O.
Data set [6] shares this target. Kind of data set: intrinsic Trp fluorescence quenching; 300 g/L PEG1; 20 mM disodium phosphate pH 7.0, no added salt stated; fluorescence titration 298 K (0.5, 2.8 or 4 uM protein; table marks a/b not explained in the material); stopped-flow 288 K (60 or 300 nM protein); NMR 298 or 294.4 K with 5% D2O.
Data set [7] shares this target. Kind of data set: intrinsic Trp fluorescence quenching; 200 g/L PEG8; 20 mM disodium phosphate pH 7.0, no added salt stated; fluorescence titration 298 K (0.5, 2.8 or 4 uM protein; table marks a/b not explained in the material); stopped-flow 288 K (60 or 300 nM protein); NMR 298 or 294.4 K with 5% D2O.
Data set [8] has the same target. Kind of data set: intrinsic Trp fluorescence quenching; 300 g/L PEG1 (series a); 20 mM disodium phosphate pH 7.0, no added salt stated; fluorescence titration 298 K (0.5, 2.8 or 4 uM protein; table marks a/b not explained in the material); stopped-flow 288 K (60 or 300 nM protein); NMR 298 or 294.4 K with 5% D2O.
Data set [9] shares this target. Kind of data set: intrinsic Trp fluorescence quenching; dilute (series a); 20 mM disodium phosphate pH 7.0, no added salt stated; fluorescence titration 298 K (0.5, 2.8 or 4 uM protein; table marks a/b not explained in the material); stopped-flow 288 K (60 or 300 nM protein); NMR 298 or 294.4 K with 5% D2O.
For data set [10] the target is unchanged. Kind of data set: intrinsic Trp fluorescence quenching; 100 g/L PEG1 (series b); 20 mM disodium phosphate pH 7.0, no added salt stated; fluorescence titration 298 K (0.5, 2.8 or 4 uM protein; table marks a/b not explained in the material); stopped-flow 288 K (60 or 300 nM protein); NMR 298 or 294.4 K with 5% D2O.
For data set [11] the target is unchanged. The data set can be described thus: intrinsic Trp fluorescence quenching; 100 g/L Dex20 (series b); 20 mM disodium phosphate pH 7.0, no added salt stated; fluorescence titration 298 K (0.5, 2.8 or 4 uM protein; table marks a/b not explained in the material); stopped-flow 288 K (60 or 300 nM protein); NMR 298 or 294.4 K with 5% D2O.
The target is the same in data set [12]. Kind of data set: intrinsic Trp fluorescence quenching; dilute (series b); 20 mM disodium phosphate pH 7.0, no added salt stated; fluorescence titration 298 K (0.5, 2.8 or 4 uM protein; table marks a/b not explained in the material); stopped-flow 288 K (60 or 300 nM protein); NMR 298 or 294.4 K with 5% D2O.
The target is the same in data set [13]. The data set can be described thus: intrinsic Trp fluorescence quenching; 200 g/L Dex20 (series b); 20 mM disodium phosphate pH 7.0, no added salt stated; fluorescence titration 298 K (0.5, 2.8 or 4 uM protein; table marks a/b not explained in the material); stopped-flow 288 K (60 or 300 nM protein); NMR 298 or 294.4 K with 5% D2O.
The target is the same in data set [14]. Kind of data set: intrinsic Trp fluorescence quenching; 300 g/L ethylene glycol; 20 mM disodium phosphate pH 7.0, no added salt stated; fluorescence titration 298 K (0.5, 2.8 or 4 uM protein; table marks a/b not explained in the material); stopped-flow 288 K (60 or 300 nM protein); NMR 298 or 294.4 K with 5% D2O.
For data set [15] the target is unchanged. Kind of data set: intrinsic Trp fluorescence quenching; 300 g/L glucose; 20 mM disodium phosphate pH 7.0, no added salt stated; fluorescence titration 298 K (0.5, 2.8 or 4 uM protein; table marks a/b not explained in the material); stopped-flow 288 K (60 or 300 nM protein); NMR 298 or 294.4 K with 5% D2O.

Drawing on PMC8417293, “Impact of crowded environments on binding between protein and single-stranded DNA”, this text covers Kd for four molecules.

In general, Kd refers to the concentration at which binding is half-saturated.

T1 sequence (P32081 whole entry): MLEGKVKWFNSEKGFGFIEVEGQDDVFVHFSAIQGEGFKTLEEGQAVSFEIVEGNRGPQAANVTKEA

Take TTTTTTT (ssDNA) [dT7]: the Kd came to 15 ± 5 nM in [1]; 75 ± 15 nM in data set [2]; 14 ± 7 nM in data set [3]; 6 ± 3 nM in data set [4]; 5 ± 3 nM in data set [5]; 570 ± 30 nM in data set [6]. Further, the Kd in data set [7] worked out at 90 ± 20 nM; in data set [8] it was 170 ± 5 nM; in [9], 7 ± 3 nM; in data set [10], 10 ± 10 nM.

On to TTTT (ssDNA) [dT4], for which the Kd was found to be 6100 ± 300 nM in data set [1] and 17000 ± 1100 nM in data set [6].

With TTTTT (ssDNA) [dT5], the Kd came out at 750 ± 50 nM in data set [1]; 710 ± 20 nM in data set [11]; 780 ± 10 nM in data set [12]; 680 ± 20 nM in data set [13]; 350 ± 50 nM in data set [4]; 5100 ± 400 nM in data set [14]. Further, the Kd in data set [15] amounted to 1310 ± 20 nM; in data set [6], 3800 ± 100 nM.

TTTTTT (ssDNA) [dT6]: the Kd in [1] was 80 ± 10 nM; in data set [6] it was 580 ± 10 nM; in data set [8], 415 ± 5 nM; in [9] it was 30 ± 10 nM.
